# B1: TPD52L1 (parent)
# chain: ISKKFGDMSYSIRHSISMPAMRNS
# B2: TRIM63 (parent)
# chain: ANPYWTSRGSSVSMSGGRFRCPTC
# Variants of: B1
# Assay: protein stability index of a GFP-peptide fusion (GPS, HEK-293T) (PSI 1-6); higher = more stable
# Conditions: c terminus: a fixed tail appended
# 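Note: lentivirally expressed fusions sorted by FACS into six bins by GFP to DsRed ratio, PSI derived from sequencing read proportions per bin multiplied by bin number.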
row,Variant,protein stability index
1,ISKKFGDMSCSIRHSISMPAMRNS,2.17
2,ISKKFGDMSGSIRHSISMPAMRNS,3.06
3,ISKKFGDMSKSIRHSISMPAMRNS,2.57
4,ISKKFGDMSHSIRHSISMPAMRNS,2.69
5,ISKKFGDMSPSIRHSISMPAMRNS,2.97
6,ISKKFGDMSFSIRHSISMPAMRNS,2.01
7,ISKKFGDMSASIRHSISMPAMRNS,2.91
8,ISKKFGDMCYSIRHSISMPAMRNS,1.88
9,ISKKFGDMWYSIRHSISMPAMRNS,2.69
10,ISKKFGDMIYSIRHSISMPAMRNS,2.59
11,ISKKFGDMKYSIRHSISMPAMRNS,2.37
12,ISKKFGDMPYSIRHSISMPAMRNS,2.03
13,IEKKFGDMSYSIRHSISMPAMRNS,2.83
14,IWKKFGDMSYSIRHSISMPAMRNS,1.83
15,IYKKFGDMSYSIRHSISMPAMRNS,1.74
16,ICKKFGDMSYSIRHSISMPAMRNS,1.82
17,IPKKFGDMSYSIRHSISMPAMRNS,2.89
18,ISKKFGDMSYSIRHSISMPLMRNS,1.93
19,ISKKFGDMSYSIRHSISMPEMRNS,2.58
20,ISKKFGDMSYSIRHSISMPMMRNS,1.95
21,ISKKFGDMSYSIRHSISMPAMRQS,2.29
22,ISKKFGDMSYSIRHSISMPAMRKS,2.48
23,ISKKFGDMSYSIRHSISMPAMRRS,2.14

row,Variant,protein stability index
1,ISKKFGDMSYSIRHSISMPAMRES,2.28
2,ISKKFGDMSYSIRHSISMPAMRWS,2.39
3,ISKKFGDMSYSIRHSISMPAMRPS,2.46
4,ISKKFGDMSYSIRHSISMPAMRDS,2.32
5,ISKKFGDMSYSIRHSISMDAMRNS,2.2
6,ISKKFGDMSYSIRHSISMTAMRNS,2.17
7,ISKKFGDMSYSIRHSISMYAMRNS,1.7
8,ISKKFGDMSYSIRHSISMNAMRNS,2.04
9,ISVKFGDMSYSIRHSISMPAMRNS,4.4
10,ISIKFGDMSYSIRHSISMPAMRNS,3.53
11,ISKKFGDMSYVIRHSISMPAMRNS,2.49
12,ISKKFGDMSYTIRHSISMPAMRNS,2.38
13,ISKKFGDMSYCIRHSISMPAMRNS,1.88
14,ISKKFGDMSYEIRHSISMPAMRNS,1.97
15,ISKKFGDMSYIIRHSISMPAMRNS,2.03
16,ISKKFGDMSYSIRHSISMPAMMNS,2.25
17,ISKKFGDMSYSIRHSISMPAMFNS,2.22
18,ISKKFGDMSYSIRHSISMPAMNNS,2.79
19,ISKKFGDMSYSIRHSISMPAMWNS,1.65
20,ISKKFGDMSYSIRHSISMPAMQNS,2.3
21,ISKKFGDMSYSIRHSISMPAMPNS,2.34
22,ISKPFGDMSYSIRHSISMPAMRNS,2.48
23,ISKRFGDMSYSIRHSISMPAMRNS,2.65

row,Variant,protein stability index
1,ISKYFGDMSYSIRHSISMPAMRNS,2.71
2,ISKFFGDMSYSIRHSISMPAMRNS,1.58
3,ISKSFGDMSYSIRHSISMPAMRNS,2.71
4,ISKLFGDMSYSIRHSISMPAMRNS,1.52
5,ISKKFGDMSYSIRHSIHMPAMRNS,2.15
6,ISKKFGDMSYSIRHSICMPAMRNS,1.92
7,ISKKFGDMSYSIRHSIIMPAMRNS,2.03
8,ISKKFGDMSYSIRHSIWMPAMRNS,1.27
9,ISKKFGDMSYSIRHSIKMPAMRNS,2.13
10,ISKKFGDMSYSIRKSISMPAMRNS,2.69
11,ISKKFGDMSYSIRSSISMPAMRNS,1.8
12,ISKKFGDMSYSIRGSISMPAMRNS,1.88
13,ISKKFGDMSYSIRYSISMPAMRNS,1.7
14,ISKKFGDMSYSIRTSISMPAMRNS,1.9
15,ISKKFGDMSYSIRVSISMPAMRNS,4.3
16,ISKKFGDMSYSIRHSISRPAMRNS,2.34
17,ISKKFGDMSYSIRHSISFPAMRNS,1.8
18,ISKKFGDMSYSIRHSISDPAMRNS,2.88
19,ISKKFGDMSYSIRHSISSPAMRNS,2.05
20,ISKKFGDMSYSIRHSISNPAMRNS,2.28
21,ISKKFGDMSYSIRHSISAPAMRNS,2.64
22,ISKKWGDMSYSIRHSISMPAMRNS,2.5
23,ISKKRGDMSYSIRHSISMPAMRNS,2.45

row,Variant,protein stability index
1,ISKKGGDMSYSIRHSISMPAMRNS,3.29
2,ISKKNGDMSYSIRHSISMPAMRNS,2.48
3,ISKKFGDMSYSIRHSISMPACRNS,3.31
4,ISKKFGDMSYSIRHSISMPATRNS,2.49
5,ISKKFGDMSYSIRHSISMPAFRNS,2.31
6,ISKKFGDGSYSIRHSISMPAMRNS,2.31
7,ISKKFGDFSYSIRHSISMPAMRNS,2.19
8,ISKKFGDYSYSIRHSISMPAMRNS,1.54
9,ISKKFGDCSYSIRHSISMPAMRNS,1.96
10,ISKKFGDMSYSIRHVISMPAMRNS,1.32
11,ISKKFGDMSYSIRHEISMPAMRNS,3.28
12,ISKKFGDMSYSIRHNISMPAMRNS,2.37
13,ISKKFGDMSYSIRHKISMPAMRNS,2.31
14,ISKKFGDMSYSCRHSISMPAMRNS,1.54
15,ISKKFGDMSYSGRHSISMPAMRNS,2.4
16,ISKKFGDMSYSDRHSISMPAMRNS,3.07
17,ISKKFIDMSYSIRHSISMPAMRNS,1.6
18,ISKKFNDMSYSIRHSISMPAMRNS,2.15
19,ISKKFWDMSYSIRHSISMPAMRNS,2.38
20,HSKKFGDMSYSIRHSISMPAMRNS,2.42
21,KSKKFGDMSYSIRHSISMPAMRNS,2.17
22,NSKKFGDMSYSIRHSISMPAMRNS,2.87
23,SSKKFGDMSYSIRHSISMPAMRNS,3.16

row,Variant,protein stability index
1,CSKKFGDMSYSIRHSISMPAMRNS,2.26
2,WSKKFGDMSYSIRHSISMPAMRNS,2.2
3,MSKKFGDMSYSIRHSISMPAMRNS,2.33
4,ASKKFGDMSYSIRHSISMPAMRNS,2.58
5,ISKKFGPMSYSIRHSISMPAMRNS,2.14
6,ISKKFGMMSYSIRHSISMPAMRNS,1.51
7,ISKKFGCMSYSIRHSISMPAMRNS,1.69
8,ISKKFGLMSYSIRHSISMPAMRNS,1.78
9,ISKKFGSMSYSIRHSISMPAMRNS,2.34
10,ISKKFGDMSYSIRHSISMPAMRNT,2.74
11,ISKKFGDMSYSIRHSISMPAMRNF,1.57
12,ISKKFGDMSYSIRHSISMPAMRNI,1.81
13,ISKKFGDMSYSIRHSISMPAMRND,2.61
14,ISKKFGDMSYSIRHSISMPAMRNW,1.44
15,ISKKFGDMSYSIGHSISMPAMRNS,2.45
16,ISKKFGDMSYSIHHSISMPAMRNS,2.37
17,ISKKFGDMSYSIYHSISMPAMRNS,1.45
18,ISKKFGDMSYSIFHSISMPAMRNS,2.01
19,ISKKFGDMSYSIRHSTSMPAMRNS,2.67
20,ISKKFGDMSYSIRHSNSMPAMRNS,2.61
21,ISKKFGDMSYSIRHSDSMPAMRNS,2.6
22,ISKKFGDMSYSIRHSPSMPAMRNS,2.99
23,ISKKFGDMSYSIRHSVSMPAMRNS,2.32

# Variants of: B2
# Assay: as above
# Conditions: c terminus: a fixed tail appended
row,Variant,protein stability index
1,ANPRWTSRGSSVSMSGGRFRCPTC,1.47
2,ANPIWTSRGSSVSMSGGRFRCPTC,2.8
3,ANPKWTSRGSSVSMSGGRFRCPTC,2.09
4,ANPAWTSRGSSVSMSGGRFRCPTC,1.33
5,ANPNWTSRGSSVSMSGGRFRCPTC,2.34
6,ANPFWTSRGSSVSMSGGRFRCPTC,1.57
7,ANPTWTSRGSSVSMSGGRFRCPTC,2.17
8,ANPSWTSRGSSVSMSGGRFRCPTC,1.65
9,ANPWWTSRGSSVSMSGGRFRCPTC,2.18
10,ANPEWTSRGSSVSMSGGRFRCPTC,2.1
11,ANPMWTSRGSSVSMSGGRFRCPTC,1.75
12,ANPVWTSRGSSVSMSGGRFRCPTC,1.56
13,ANPGWTSRGSSVSMSGGRFRCPTC,1.36
14,ANPQWTSRGSSVSMSGGRFRCPTC,1.69
15,ANPDWTSRGSSVSMSGGRFRCPTC,2.51
16,ANPCWTSRGSSVSMSGGRFRCPTC,2.92
17,ALPYWTSRGSSVSMSGGRFRCPTC,1.37
18,AMPYWTSRGSSVSMSGGRFRCPTC,1.6
19,AYPYWTSRGSSVSMSGGRFRCPTC,2.14
20,AKPYWTSRGSSVSMSGGRFRCPTC,1.59
21,ATPYWTSRGSSVSMSGGRFRCPTC,1.73
22,AGPYWTSRGSSVSMSGGRFRCPTC,1.84
23,AFPYWTSRGSSVSMSGGRFRCPTC,1.6
24,AEPYWTSRGSSVSMSGGRFRCPTC,2.51
25,AQPYWTSRGSSVSMSGGRFRCPTC,1.23

row,Variant,protein stability index
1,AHPYWTSRGSSVSMSGGRFRCPTC,2.3
2,AIPYWTSRGSSVSMSGGRFRCPTC,3.56
3,ARPYWTSRGSSVSMSGGRFRCPTC,2.05
4,ASPYWTSRGSSVSMSGGRFRCPTC,1.89
5,APPYWTSRGSSVSMSGGRFRCPTC,1.76
6,AAPYWTSRGSSVSMSGGRFRCPTC,2.08
7,ACPYWTSRGSSVSMSGGRFRCPTC,2.43
8,ANEYWTSRGSSVSMSGGRFRCPTC,1.91
9,ANQYWTSRGSSVSMSGGRFRCPTC,2.2
10,ANSYWTSRGSSVSMSGGRFRCPTC,1.36
11,ANHYWTSRGSSVSMSGGRFRCPTC,2.82
12,ANYYWTSRGSSVSMSGGRFRCPTC,2.38
13,ANGYWTSRGSSVSMSGGRFRCPTC,1.18
14,ANMYWTSRGSSVSMSGGRFRCPTC,1.54
15,ANRYWTSRGSSVSMSGGRFRCPTC,1.84
16,ANTYWTSRGSSVSMSGGRFRCPTC,2.08
17,ANIYWTSRGSSVSMSGGRFRCPTC,2.14
18,ANAYWTSRGSSVSMSGGRFRCPTC,2.08
19,ANNYWTSRGSSVSMSGGRFRCPTC,1.07
20,ANFYWTSRGSSVSMSGGRFRCPTC,2.13
21,ANPYMTSRGSSVSMSGGRFRCPTC,2.16
22,ANPYNTSRGSSVSMSGGRFRCPTC,2.44
23,ANPYCTSRGSSVSMSGGRFRCPTC,1.6
24,ANPYLTSRGSSVSMSGGRFRCPTC,1.73
25,ANPYFTSRGSSVSMSGGRFRCPTC,1.41

row,Variant,protein stability index
1,ANPYGTSRGSSVSMSGGRFRCPTC,2.45
2,ANPYQTSRGSSVSMSGGRFRCPTC,2.62
3,ANPYDTSRGSSVSMSGGRFRCPTC,2.19
4,ANPYETSRGSSVSMSGGRFRCPTC,2.25
5,ANPYHTSRGSSVSMSGGRFRCPTC,2.17
6,ANPYPTSRGSSVSMSGGRFRCPTC,2.44
7,ANPYATSRGSSVSMSGGRFRCPTC,1.92
8,VNPYWTSRGSSVSMSGGRFRCPTC,2.21
9,MNPYWTSRGSSVSMSGGRFRCPTC,2.07
10,HNPYWTSRGSSVSMSGGRFRCPTC,1.88
11,LNPYWTSRGSSVSMSGGRFRCPTC,1.89
12,KNPYWTSRGSSVSMSGGRFRCPTC,2.1
13,GNPYWTSRGSSVSMSGGRFRCPTC,1.66
14,INPYWTSRGSSVSMSGGRFRCPTC,1.53
15,DNPYWTSRGSSVSMSGGRFRCPTC,1.67
16,PNPYWTSRGSSVSMSGGRFRCPTC,1.28
17,RNPYWTSRGSSVSMSGGRFRCPTC,2.08
18,NNPYWTSRGSSVSMSGGRFRCPTC,2.18
19,SNPYWTSRGSSVSMSGGRFRCPTC,2.69
20,TNPYWTSRGSSVSMSGGRFRCPTC,1.88
21,QNPYWTSRGSSVSMSGGRFRCPTC,1.49
22,FNPYWTSRGSSVSMSGGRFRCPTC,2.58
23,ENPYWTSRGSSVSMSGGRFRCPTC,2.31

# From the supplement of paper PMC10567573
